Ends that are not written are not given here.
Legend:
[1] = target: AM receptor (AM-R) on human tumor cell lines (human); assay: cell-based or functional assay
[2] = target: AM receptor (AM-R) on human tumor cell lines (human); assay: receptor binding on MCF-7 cells
[3] = target: AM receptor (AM-R) on human tumor cell lines (human); assay: displacement of 125I-AM from MCF-7 cells by unlabelled AM
[4] = target: AM receptor (AM-R) on human tumor cell lines (human); assay: 125I-AM (0.2 nM per 5×10^5 cells) binding to NCI-H1264 cells

B1: adrenomedullin (AM) (peptide, UniProt P35318 95-146, looked up)
peptide: YRQSMNNFQGLRSFGCRFGTCTVQKLAHQIYQFTDKDKDNVAPRSKISPQGY-NH2
modifications: ends and bridges not checked; also: 125I-labelled as tracer in receptor assays
[1]
  increase in cellular cAMP (ED50): 5 nM
  maximum elevation of cellular cAMP (fold of control): 3
[2]
  Kd: 2 nM
[3]
  IC50: 10 nM
[4]
  radioactivity bound (cpm): 2260 cpm

Source: patent US20020055615A1
